# Results reported in US20190144550A1 (Pfizer, published 2019).
# Biological target: T1, EGFR-mFc (human; mouse, UniProt P00533 25-645)
# T1 construct: extracellular domain; Produced in HEK293 cells; also called recombinant EGFR-mFc; not shown: mouse IgG1-Fc domain
# Assay: flow cytometry, CAR T cells stained with mFc fusion protein, Day 4
# Description: To determine target binding specificity of the CARs, recombinant proteins EGFRvII-mFc and EGFR-mFc, which comprise of the extracellular domain of either human EGFRvIII or human wild-type EGFR, respectively, fused with mouse IgG1-Fc domain, were produced in HEK293 cells. […]
row,binding result,Binder
1,no binding,"14C11 EGFRvIII specific CAR (other, Chimeric antigen receptor on primary human T cells) QVTLKESGPVLVKPTETLTLTCTVSGFSLNNARMGVSWIRQPPGKALEWFAHIFSTDEKSFRTSLRSRLTLSKDTSKSQVVLTMTNMDPVDTATYYCARDSSNYEGYFDYWGQGILVTVSSGGGGSGGGGSGGGGSGGGGSEIVMTQSPATLSVSPGERATLSCRASQSVSNNLAWYQQKPGQAPRLLIYGASTRATGVPARFSGSDSGTEFSLTISSLQSEDFAVYFCQQYKDWPFTFGPGTKVEIKTTTPAPRPPTPAPTIASQPLSLRPEACRPAAGGAVHTRGLDFACDIYIWAPLAGTCGVLLLSLVITLYCKRGRKKLLYIFKQPFMRPVQTTQEEDGCSCRFPEEEEGGCELRVKFSRSADAPAYQQGQNQLYNELNLGRREEYDVLDKRRGRDPEMGGKPRRKNPQEGLYNELQKDKMAEAYSEIGMKGERRRGKGHDGLYQGLSTATKDTYDALHMQALPPR"
2,no binding,"42G9 EGFRvIII specific CAR (other, Chimeric antigen receptor on primary human T cells) QVTLKESGPVLLKPTETLTLTCTVSGFSLSNPRMGVSWIRQPPGKALEWFAHIFSTDEKSLKLSLRSRLTLSKDTSKSQVVLTMTNMAPVDSATYYCARDSSNYEGYFDFWGQGTLVTVSSGGGGSGGGGSGGGGSGGGGSEVVLTQSPATLSVSPGERATLSCRASQSVRSNLAWYQQKSGQAPRLLIYGSTIRATGVPARFSGSGSGTEFTLTISSLQSEDFAVYYCQQYSDWPFTFGPGTKVDIKTTTPAPRPPTPAPTIASQPLSLRPEACRPAAGGAVHTRGLDFACDIYIWAPLAGTCGVLLLSLVITLYCKRGRKKLLYIFKQPFMRPVQTTQEEDGCSCRFPEEEEGGCELRVKFSRSADAPAYQQGQNQLYNELNLGRREEYDVLDKRRGRDPEMGGKPRRKNPQEGLYNELQKDKMAEAYSEIGMKGERRRGKGHDGLYQGLSTATKDTYDALHMQALPPR"
3,no binding,"32A10 EGFRvIII specific CAR (other, Chimeric antigen receptor on primary human T cells) QVTLKESGPVLVKPTETLTLTCTVSGFSLSNARMGVSWIRQPPGKALEWLAHIFSTDEKSIRRSLRSRLTLSKDTSKSQVVLTMTNMDPVDTATYFCARDSSNYEGYFDYWGQGTLVTVSSGGGGSGGGGSGGGGSGGGGSEVVMTQSPATLSVSPGERVTLSCRASQSVSSNFAWYQQRPGQAPRLLLYGATTRATGLPGRFSGSGSGTENILTISSLQSEDFAIYFCQQYKDWPFTFGPGSKVDIKTTTPAPRPPTPAPTIASQPLSLRPEACRPAAGGAVHTRGLDFACDIYIWAPLAGTCGVLLLSLVITLYCKRGRKKLLYIFKQPFMRPVQTTQEEDGCSCRFPEEEEGGCELRVKFSRSADAPAYQQGQNQLYNELNLGRREEYDVLDKRRGRDPEMGGKPRRKNPQEGLYNELQKDKMAEAYSEIGMKGERRRGKGHDGLYQGLSTATKDTYDALHMQALPPR"
4,no binding,"20B9 EGFRvIII specific CAR (other, Chimeric antigen receptor on primary human T cells) QVTLKESGPVLVKPTETLTLTCTVSGFSLSNARMGVSWIRQPPGKALEWLGHIFSTDEKSYSTSLRGRITISKDTSRGLVVLTLTNMDPVDTATYYCARDSSNYEGYFDFWGPGFLVTVSSGGGGSGGGGSGGGGSGGGGSEIVMTQSPATLSVSPGERATLSCRVSQSIGANLAWYQQKFGQAPRLLIYGASTRATGIPVRFSGGGSGTEFTLTISSLQSEDFAIYSCQQYIYWPFTFGPGTTVDIKTTTPAPRPPTPAPTIASQPLSLRPEACRPAAGGAVHTRGLDFACDIYIWAPLAGTCGVLLLSLVITLYCKRGRKKLLYIFKQPFMRPVQTTQEEDGCSCRFPEEEEGGCELRVKFSRSADAPAYQQGQNQLYNELNLGRREEYDVLDKRRGRDPEMGGKPRRKNPQEGLYNELQKDKMAEAYSEIGMKGERRRGKGHDGLYQGLSTATKDTYDALHMQALPPR"
